Experimental data taken from article PMC8263624, “Asymmetric reconstruction of mammalian reovirus reveals interactions among RNA, transcriptional factor µ2 and capsid proteins” (Nature Communications, 2021).

B1: capsid shell protein (CSP) λ1 (natural protein)
chain: MKRIPRKTKGKSSGKGNDSTERADDGSSQLRDKQNNKAGPATTEPGTSNREQYKARPGIASVQRATESAEMPMKNNDEGTPDKKGNTKGDLVNEHSEAKDEADEATKKQAKDTDKSKAQVTYSDTGINNANELSRSGNVDNEGGSNQKPMSTRIAEATSAIVSKHPARVGLPPTASSGHGYQCHVCSAVLFSPLDLDAHVASHGLHGNMTLTSSDIQRHITEFISSWQNHPIVQVSADVENKKTAQLLHADTPRLVTWDAGLCTSFKIVPIVPAQVPQDVLAYTFFTSSYAIQSPFPEAAVSRIVVHTRWASNVDFDRDSSVIMAPPTENNIHLFKQLLNTETLSVRGANPLMFRANVLHMLLEFVLDNLYLNRHTGFSQDHTPFTEGANLRSLPGPDAEKWYSIMYPTRMGTPNVSKICNFVASCVRNRVGRFDRAQMMNGAMSEWVDVFETSDALTVSIRGRWMARLARMNINPTEIEWALTECAQGYVTVTSPYAPIVNRLMPYRISNAERQISQIIRIMNIGNNATVIQPVLQDISVLLQRISPLQIDPTIISNTMSTVSESTTQTLSPASSILGKLRPSNSDFSSFRVALAGWLYNGVVTTVIDDSSYPKDGGSVTSLENLWDFFILALALPLTTDPCAPVKAFMTLANMMVGFETIPMDNQIYTQSRRASAFSTPHTWPRCFMNIQLISPIDAPILRQWAEIIHRYWPNPSQIRYGAPNVFGSANLFTPPEVLLLPIDHQPANVTTPTLDFTNELTNWRARVCELMKNLVDNQRYQPGWTQSLVSSMRGTLDKLKLIKSMTPMYLQQLAPVELAVIAPMLPFPPFQVPYVRLDRDRVPTMVGVTRQSRDTITQPALSLSTTNTTVGVPLALDARAITVALLSGKYPPDLVTNVWYADAIYPMYADTEVFSNLQRDMITCEAVQTLVTLVAQISETQYPVDRYLDWIPSLRASAATAATFAEWVNTSMKTAFDLSDMLLEPLLSGDPRMTQLAIQYQQYNGRTFNIIPEMPGSVIADCVQLTAEVFNHEYNLFGIARGDIIIGRVQSTHLWSPLAPPPDLVFDRDTPGVHIFGRDCRISFGMNGAAPMIRDETGLMVPFEGNWIFPLALWQMNTRYFNQQFDAWIKTGELRIRIEMGAYPYMLHYYDPRQYANAWNLTSAWLEEITPTSIPSVPFMVPISSDHDISSAPAVQYIISTEYNDRSLFCTNSSSPQTIAGPDKHIPVERYNILTNPDAPPTQIQLPEVVDLYNVVTRYAYETPPITAVVMGVP
notes: capsid shell protein λ1 of mammalian reovirus serotype Dearing 3, native in the virus particle; 120 copies in each particle as λ1A/λ1B dimers; five pairs (1-5) around each vertex; also called λ1A; λ1B
B2: membrane penetration protein µ1 (natural protein)
chain 1: MGNASSIVQTINVTGDGNVFKPSAETSSTAVPSLSLSPGMLN
chain 2: PGGVPWIAVGDETSVTSPGALRRMTSKDIPETAIINTDNSSGAVPSESALVPYIDEPLVVVTEHAITNFTKAEMALEFNREFLDKMRVLSVSPKYSDLLTYVDCYVGVSARQALNNFQKQVPVITPTRQTMYVDSIQAALKALEKWEIDLRVAQTLLPTNVPIGEVSCPMQSVVKLLDDQLPDDSLIRRYPKEAAVALAKRNGGIQWMDVSEGTVMNEAVNAVAASALAPSASAPPLEEKSKLTEQAMDLVTAAEPEIIASLAPVPAPVFAIPPKPADYNVRTLRIDEATWLRMIPKSMNTPFQIQVTDNTGTNWHLNLRGGTRVVNLDQIAPMRFVLDLGGKSYKETSWDPNGKKVGFIVFQSKIPFELWTAASQIGQATVVNYVQLYAEDSSFTAQSIIATTSLAYNYEPEQLNKTDPEMNYYLLATFIDSAAITPTNMTQPDVWDALLTMSPLSAGEVTVKGAVVSEVVPADLIGSYTPESLNASLPNDAARCMIDRASKIAEAIKIDDDAGPDEYSPNSVPIQGQLAISQLETGYGVRIFNPKGILSKIASRAMQAFIGDPSTIITQAAPVLSDKNNWIALAQGVKTSLRTKSLSAGVKTAVSKLSSSESIQNWTQGFLDKVSAHFPAPKPDCPTSGDSGESSNRRVKRDSYAGVVKRGYTR
modifications: N-myristoyl group at the amino terminus
notes: N-terminal (N-myristoyl) fragment of penetration protein μ1 of mammalian reovirus serotype Dearing 3, up to the autolytic cleavage site between N42 and P43; penetration protein μ1 of mammalian reovirus serotype Dearing 3 from the autolytic cleavage site between N42 and P43 onwards; 600 copies (200 trimers) in each particle; also called μ1; penetration protein μ1; copies: 3 + 3
B3: mRNA capping protein λ2 (enzyme)
chain: MANVWGVRLADSLSSPTIETRTRQYTLHDLCSDLDANPGREPWKPLRNQRTNNIVAVQLFRPLQGLVLDTQLYGFPGAFDDWERFMREKLRVLKYEVLRIYPISNYSNEHVNVFVANALVGAFLSNQAFYDLLPLLIINDTMIGDLLGTGASLSQFFQSHGDVLEVAAGRKYLQMENYSNDDDDPPLFAKDLSDYAKAFYSDTYEVLDRFFWTHDSSAGVLVHYDKPTNGHHYLLGTLTQMVSAPPYIINATDAMLLESCLEQFSANVRARPAQPVTRLDQCYHLRWGAQYVGEDSLTYRLGVLSLLATNGYQLARPIPRQLTNRWLSSFVSQIMSDGVNETPLWPQERYVQIAYDSPSVVDGATQYGYVRKNQLRLGMRISALQSLSDTPSPVQWLPQYTIDQAAMDEGDLMVSRLTQLPLRPDYGNIWVGDALSYYVDYNRSHRVVLSSELPQLPDTYFDGDEQYGRSLFSLARKIGDRSLVKDTAVLKHAYQAIDPNTGKEYLRSRQSVAYFGASAGHSGADQPLVIEPWIQGKISGVPPPSSVRQFGYDVARGAIVDLARPFPSGDYQFVYSDVDQVVDGHDDLSISSGLVESLLSSCMHATAPGGSFVVKINFPTRPVWHYIEQKILPNITSYMLIKPFVTNNVELFFVAFGVHQHSSLTWTSGVYFFLVDHFYRYETLSTISRQLPSFGYVDDGSSVTGIETISIENPGFSNMTQAARIGISGLCANVGNARKSIAIYESHGARVLTITSRRSPASARRKSRLRYLPLIDPRSLEVQARTILPADPVLFENVSGASPHVCLTMMYNFEVSSAVYDGDVVLDLGTGPEAKILELIPATSPVTCVDIRPTAQPSGCWNVRTTFLELDYLSDGWITGVRGDIVTCMLSLGAAAAGKSMTFDAAFQQLIKVLSKSTANVVLVQVNCPTDVVRSIKGYLEIDSTNKRYRFPKFGRDEPYSDMDALEKICRTAWPNCSITWVPLSYDLRWTRLALLESTTLSSASIRIAELMYKYMPIMRIDIHGLPMEKRGNFIVGQNCSLVIPGFNAQDVFNCYFNSALAFSTEDVNAAMIPQVSAQFDATKGEWTLDMVFSDAGIYTMQALVGSNANPVSLGSFVVDSPDVDITDAWPAQLDFTIAGTDVDITVNPYYRLMTFVRIDGQWQIANPDKFQFFSSASGTLVMNVKLDIADKYLLYYIRDVQSRDVGFYIQHPLQLLNTITLPTNEDLFLSAPDMREWAVKESGNTICILNSQGFVLPQDWDVLTDTISWSPSIPTYIVPPGDYTLTPL
notes: mRNA capping protein λ2 of mammalian reovirus serotype Dearing 3, native in the virus particle; 60 copies forming 12 pentameric turrets; also called capping enzyme λ2; turret
B4: receptor binding protein σ1 (natural protein)
chain: MDPRLREEVVRLIIALTSDNGASLSKGLESRVSALEKTSQIHSDTILRITQGLDDANKRIIALEQSRDDLVASVSDAQLAISRLESSIGALQTVVNGLDSSVTQLGARVGQLETGLAELRVDHDNLVARVDTAERNIGSLTTELSTLTLRVTSIQADFESRISTLERTAVTSAGAPLSIRNNRMTMGLNDGLTLSGNNLAIRLPGNTGLNIQNGGLQFRFNTDQFQIVNNNLTLKTTVFDSINSRIGATEQSYVASAVTPLRLNSSTKVLDMLIDSSTLEINSSGQLTVRSTSPNLRYPIADVSGGIGMSPNYRFRQSMWIGIVSYSGSGLNWRVQVNSDIFIVDDYIHICLPAFDGFSIADGGDLSLNFVTGLLPPLLTGDTEPAFHNDVVTYGAQTVAIGLSSGGAPQYMSKNLWVEQWQDGVLRLRVEGGGSITHSNSKWPAMTVSYPRSFT
notes: 12 trimers in each particle; Seen only in the sub-particle reconstruction; also called σ1 trimer; σ1 spike

Target: the molecule itself
Experiment: cryo-EM structure; asymmetric (C1) vertex sub-particle reconstructions of native MRV ISVP at 3.3 Å, asymmetric full ISVP at 4.3 Å; isolated virus particles in PBS pH 7.4; proteins assembled in the particle, in situ

Row | Protein | stoichiometry N
1 | B1 | 2
2 | B2 | 3
3 | B3 | 5
4 | B4 | 3
